Target: Siglec-10Fc (human) (UniProt Q96LC7)
Assay: Biacore (SPR): value printed under the KD line for the control Fc with Siglec-10Fc. No curve is drawn for the control Fc.

UniProt Q96LC7, sequence (Q96LC7 17-546): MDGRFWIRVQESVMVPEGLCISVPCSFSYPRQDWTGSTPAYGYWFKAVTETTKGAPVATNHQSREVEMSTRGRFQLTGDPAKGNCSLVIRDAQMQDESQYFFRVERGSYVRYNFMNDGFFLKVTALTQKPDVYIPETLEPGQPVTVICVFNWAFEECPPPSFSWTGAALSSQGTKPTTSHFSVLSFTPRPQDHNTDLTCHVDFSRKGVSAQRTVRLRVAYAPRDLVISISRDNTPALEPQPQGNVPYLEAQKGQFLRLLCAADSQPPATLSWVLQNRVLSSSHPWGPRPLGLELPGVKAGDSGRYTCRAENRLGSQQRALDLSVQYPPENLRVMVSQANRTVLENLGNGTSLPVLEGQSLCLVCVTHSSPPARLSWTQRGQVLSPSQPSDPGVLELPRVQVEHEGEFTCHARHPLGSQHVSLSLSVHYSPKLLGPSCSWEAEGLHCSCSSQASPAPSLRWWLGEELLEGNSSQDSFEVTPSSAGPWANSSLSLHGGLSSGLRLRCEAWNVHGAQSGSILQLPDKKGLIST

Kd: 16.2 µM
Substance: control Fc

Source: patent US20200197485A1
